Measurements taken from patent publication US20070087413A1 (GENHUNTER, published 2007).
Where “and” joins values, the source holds several entries; their conditions need not be identical. Equal entries are not always repeated.

Molecular target: human TNF-α (R & D Systems) (human, UniProt P01375 77-233)
Assay: cell-based or functional assay

Chain of human TNF-α (R & D Systems) (P01375 77-233 limits assumed): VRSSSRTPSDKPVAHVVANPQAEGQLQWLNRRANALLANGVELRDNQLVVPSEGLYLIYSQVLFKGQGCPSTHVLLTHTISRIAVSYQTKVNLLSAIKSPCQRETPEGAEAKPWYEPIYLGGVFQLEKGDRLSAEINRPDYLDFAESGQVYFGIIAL

B1: trimeric soluble human TNF-RII-T2 fusion protein (human soluble TNF-RII fused to the T2 C-propeptide of human α(I) collagen) (receptor)
chain: LPAQVAFTPYAPEPGSTCRLREYYDQTAQMCCSKCSPGQHAKVFCTKTSDTVCDSCEDSTYTQLWNWVPECLSCGSRCSSDQVETQACTREQNRICTCRPGWYCALSKQEGCRLCAPLRKCRPGFGVARPGTETSDVVCKPCAPGTFSNTTSSTDICRPHQICNVVAIPGNASMDAVCTSTSPTRSMAPGAVHLPQPVSTRSQHTQPTPEPSTAPSTSFLLPMGPSPPAEGSTGSDANVVRDRDLEVDTTLKSLSQQIENIRSPEGSRKNPARTCRDLKMCHSDWKSGEYWIDPNQGCNLDAIKVFCNMETGETCVYPTQPSVAQKNWYISKNPKDKRHVWFGESMTDGFQFEYGGQGSDPADVAIQLTFLRLMSTEASQNITYHCKNSVAYMDQQTGNLKKALLLKGSNEIEIRAEGNSRFTYSVTVDGCTSHTGAWGKTVIEYKTTKSSRLPIIDVAPLDVGAPDQEFGFDVGPVCFL
For B1, the “apparent Ki-50 (50% inhibition) of TNF-α mediated apoptosis of WEHI-13VAR cells, human TNF-α at 0.5 ng/mL” value was ~2 ng/mL and ~8e-12 M.
